Measurements as given in article PMC8294851.

Key:
[1] = target: Neuronal SNARE complex (VAMP2 on nanolipoprotein particles with flipped t-SNAREs Syntaxin-1 and SNAP-25 on tCells) (not stated | rat) (UniProt P63045)
[2] = target: Neuronal SNARE complex (VAMP2 on nanolipoprotein particles with flipped t-SNAREs Syntaxin-1 and SNAP-25 on tCells) (not stated | rat) (UniProt P63045); remark: listed apart in the source
[3] = target: Neuronal SNARE complex (VAMP2 on nanolipoprotein particles with flipped t-SNAREs Syntaxin-1 and SNAP-25 on tCells) (not stated | rat) (UniProt P63045); remark: listed apart in the source

Sequence of UniProt P63045 (P63045 whole entry, chain 1 of 3): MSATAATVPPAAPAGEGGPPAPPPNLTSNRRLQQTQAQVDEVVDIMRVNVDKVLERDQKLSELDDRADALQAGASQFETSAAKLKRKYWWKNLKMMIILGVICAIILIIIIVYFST
Sequence of UniProt P63045 (P32851 186-288, chain 2 of 3, further chain): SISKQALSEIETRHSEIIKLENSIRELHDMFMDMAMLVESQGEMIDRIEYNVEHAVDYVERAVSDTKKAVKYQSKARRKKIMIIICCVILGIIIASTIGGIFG
Sequence of UniProt P63045 (P60881 2-206, chain 3 of 3, further chain): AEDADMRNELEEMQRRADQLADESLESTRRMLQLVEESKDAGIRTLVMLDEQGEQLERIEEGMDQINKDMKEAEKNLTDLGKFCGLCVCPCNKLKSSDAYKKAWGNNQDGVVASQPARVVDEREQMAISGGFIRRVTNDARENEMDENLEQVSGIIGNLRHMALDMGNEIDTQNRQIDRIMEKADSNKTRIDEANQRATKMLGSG

Q: Which mean single-pore conductance, fusion of NLPs carrying Syt1 and VAMP2 with flipped t-SNARE cells pre-incubated with diC8PI(4,5)P2, compared to SNARE-alone fusion [1] does the source give for “Full-length Synaptotagmin-1 (pET28a-SUMO-synaptotagmin 1, residues 57-421), reconstituted into nanolipoprotein particles (from UniProt P21707 57-421) (natural protein)” here?
A: Its mean single-pore conductance, fusion of NLPs carrying Syt1 and VAMP2 with flipped t-SNARE cells pre-incubated with diC8PI(4,5)P2, compared to SNARE-alone fusion is 3 fold.

Q: “Synaptotagmin-1 C2AB R398Q, R399Q (from UniProt P21707 96-421) (domain or fragment)” was tested. Which mean single open-pore conductance, mutant C2AB with VAMP2 NLPs and flipped t-SNARE cells, 100 μM free calcium and exogenous PI(4,5)P2, compared to wild-type C2AB [2] did it give?
A: Its mean single open-pore conductance, mutant C2AB with VAMP2 NLPs and flipped t-SNARE cells, 100 μM free calcium and exogenous PI(4,5)P2, compared to wild-type C2AB is 3 fold smaller.

Q: How did the mean single fusion pore conductance, 10 μM soluble C2AB with VAMP2 NLPs and flipped t-SNARE cells, 100 μM calcium and exogenous PI(4,5)P2, compared to no Syt1 [3] turn out when “Synaptotagmin-1 soluble C2AB domains (rat Syt1 residues 96-421) (from UniProt P21707 96-421) (domain or fragment)” was run?
A: The mean single fusion pore conductance, 10 μM soluble C2AB with VAMP2 NLPs and flipped t-SNARE cells, 100 μM calcium and exogenous PI(4,5)P2, compared to no Syt1 was 3 fold.
